The subject of test [1] is BxPC-3 pancreatic cancer cell line. In words: Cell viability by CellTiter-Glo after doxycycline-induced expression. Type of test: cell-based. The conditions noted are these: BxPC-3, expression induced by doxycycline for 4 days. From the text: FIG. 5. Micropeptide of sequence SEQ ID NO: 1 overexpression induces cell cycle arrest and cellular senescence. BxPC-3 cells were transduced with an inducible lentivirus coding HA-SEQ ID NO: 1. Micropeptide of sequence SEQ ID NO: 1 expression was induced by doxycycline treatment for 4 days. (A) Phase contrast images of SEQ ID NO:1-expressing cells and control cells. (B) Cell viability analysis by CellTiter-Glo assay. (C) Cell cycle analysis by flow cytometry. Left, histogram plots. Right, quantification of the number of cells in every cell cycle phase (D) Analysis of p27 and p21 expression by qPCR. (E) Western Blot of the indicated cells using anti-HA and anti-p21 antibodies. (F) Quantification of the number of SA-β-Gal positive cells in doxycycline-treated and untreated cells. (G) Representative pictures of the cell quantified in (F). Graphs show the mean±SEM, using at least 3 technical replicates. **P<0.01 ***P<0,001 **** P<0.0001, two-tailed t-test.
(§1) Micropeptide of SEQ ID NO: 1 expression was induced in BxPC3 cells by treatment with doxycycline (2 μg/ml) for 4 days. Cells were fixed using 100% ethanol at 4° C., stained with Propidium Iodide, and cell cycle was analysed by flow cytometry (LSR-Fortessa cytometer). Cell viability in micropeptide of SEQ ID NO: 1-expressing cells was evaluated using CellTiter-Glo 2.0 (Promega) following manufacturer's instructions.

Test [2] concerns SkBR-3, HPAF II, MIA PaCa-2 and BxPC-3 cells. In words: Cell death upon puromycin selection stress (phase contrast images). The conditions noted are these: Puromycin selection of infected cells, pMSCV non-inducible vector; several pancreatic and breast cancer cell lines. Type of test: cell-based. The protocol: FIG. 6. Micropeptide of sequence SEQ ID NO: 1 expression induces cell death upon cellularstress. SkBR-3, HPAF II, MIA PaCa-2 and BxPC-3 cells were infected with empty or SEQ ID NO: 1-HA retroviruses, and selected by puromycin. Micropeptide of sequence SEQ ID NO: 1 expression was analyzed by qPCR (A) and by Western blot (B). (C) Phase contrast images of the indicated cells 3 days after selection with puromycin. […] (E) BXPC-3 cells were infected with an inducible lentivirus encoding SEQ ID NO: 1-HA, and selected with Neomycin. Micropeptide of sequence SEQ ID NO: 1 expression was induced by doxycycline, and cells were treated with Doxorubicin or Actinomycin D. (E) Cell viability of the indicated cells measured by crystal violet staining.

For the next test, the system named is BxPC-3 infected cells. In words: Annexin V/PI assay. Type of test: cell-based. The conditions noted are these: BxPC-3, SEQ ID NO: 1-Puromycin conditions. The procedure: FIG. 6. Micropeptide of sequence SEQ ID NO: 1 expression induces cell death upon cellularstress. SkBR-3, HPAF II, MIA PaCa-2 and BxPC-3 cells were infected with empty or SEQ ID NO: 1-HA retroviruses, and selected by puromycin. Micropeptide of sequence SEQ ID NO: 1 expression was analyzed by qPCR (A) and by Western blot (B). (C) Phase contrast images of the indicated cells 3 days after selection with puromycin. (D) Annexin-V/PI staining of BxPC-3 infected cells with and without puromycin treatment, analyzed by Flow Cytrometry. (E) BXPC-3 cells were infected with an inducible lentivirus encoding SEQ ID NO: 1-HA, and selected with Neomycin. Micropeptide of sequence SEQ ID NO: 1 expression was induced by doxycycline, and cells were treated with Doxorubicin or Actinomycin D. (E) Cell viability of the indicated cells measured by crystal violet staining.
After lentiviral infection and puromycin selection for 72 h, infected cells were washed twice with cold PBS and resuspended in Binding Buffer at a cell density of 1×10^6 cells/mL. Following manufacturer's instructions (BD Pharmingen™) 100 μL of cells were treated with 5 μL of Annexin V-FITC. After incubation for 15 min in the dark at room temperature, 400 ul of Binding Buffer was added and each sample was supplemented with 10 μL of Propidium Iodide. Flow cytometry analysis was performed on a LSR Fortessa cytometer.

Test [3] relates to squamous cell carcinoma cell line H10. In words: Cell proliferation assay (growth curve, 14 days). Type of test: cell-based. The conditions noted are these: H10, monitored for 14 days, vs control vector. From the text:
(§2) FIG. 8. SEQ ID NO: 1 overexpression reduces cell proliferation. A549 and H10 cells were transduced with an inducible lentivirus coding HA-SEQ ID NO: 1. SEQ ID NO: 1 expression was induced by doxycycline treatment for 14 days. (A) Growth curve of transduced cells over 14 days of SEQ ID NO:1 expression. (B) Cell cycle analysis by flow cytometry. Left, histogram plots. Right, quantification of the number of cells in every cell cycle phase. Graphs show the mean±SD, using at least 3 technical replicates. **** P<0.0001, two-tailed t-test.
A549 and H10 cell lines were dissociated by trypsin digestion and seeded into 24-well cell culture plates at density 5×10^3 cells/well. Every two days, cells were dissociated from wells and counted using a Neubauer chamber. Cell growth curves were monitored for 14 days.

The test system of a further test is H10 cells. In words: Cell cycle analysis by flow cytometry. Format: cell-based.
Description: as §2, §1

A further test has as its system A549 cancer cells. In words: Invasion assay (Boyden chamber, Matrigel). Type of test: cell-based, human. The conditions noted are these: A549, after 4 days of doxycycline induction, 24 h invasion. The procedure: FIG. 9. SEQ ID NO: 1 overexpression impairs invasiveness and reduces mesenchymal traits in A549 and H10 cell lines. Invasion of indicated cells was analyzed in matrigel-coated inserts. (A) The undersides of membrane inserts containing invaded cells were fixed and stained with crystal violet and photographed 24 h after plating. (B) Number of invasive cells was calculated using ImageJ software. Bars plots show relative number of cells invading the chamber. (C) Analysis of several mesenchymal genes by qPCR. mRNA expression is shown relative to the control. * P<0.05, **P<0.01 two-tailed t-test.
BxPC-3, MDA-MB-231, A549 and H10 cell lines were trypsinized, counted, and 20.000 cells/well were seeded in triplicate in a Corning® cell culture insert (Boyden chamber) in which the porous membrane is coated with a layer of Matrigel® to mimic an extra cellular matrix (ECM). Cells were allowed to invade through the coated membrane for 24 hours in the cell incubator at 37° C. After the incubation time, culture inserts were fixed in methanol 5 minutes at RT and stained using Crystal Violet 20 minutes at RT. The excess of Crystal Violet staining was removed washing with PBS and pictures of the chambers were taken using an Olympus CeIIR microscope. Invading cells were counted using ImageJ and fold change was calculated normalizing to the control.

In the next test the test system is ubiquitylated proteins. In words: Co-Immunoprecipitation using Anti-HA and Western Blot. Format: binding. The conditions noted are these: immunoprecipitation with Anti-HA. From the text:
(§3) FIG. 11. Micropeptide of sequence SEQ ID NO: 1 expression changes cell ubiquitylation pattern. (A) Co-Immunoprecipitation using Anti-HA and Western Blot experiments indicate the presence of ubiquitylated proteins in the pull down of SEQ ID NO: 1 expressing cells. (B) Analysis of ubiquitylated protein levels by Western Blot in SEQ ID NO: 1 or empty vector BxPC-3 infected cells after proteasome blocking treatment with MG132.

For test [4], the system named is protein ubiquitylation pattern in BxPC-3 infected cells. In words: Ubiquitylated protein levels by Western Blot after MG132. Format: cell-based. The conditions noted are these: proteasome blocking with MG132.
Description: as §3

Data on one molecule can be found in patent US11858972B2, “Micropeptides and uses thereof” (FUNDACIÓ PRIVADA INSTITUT D'INVESTIGACIÓ ONCOLÒGICA DE VALL …, priority 2018, dated 2024).

B1: SEQ ID NO: 1: highly conserved 87 aa micropeptide coded by the lncRNA TINCR; predicted ubiquitin-like protein (protein, listed as Homo sapiens)
chain: MEGLRRGLSRWKRYHIKVHLADEALLLPLTVRPRDTLSDLRAQLVGQGVSSWKRAFYYNARRLDDHQTVRDARLQDGSVLLLVSDPR
With B1, in test [1], the cell proliferation entry is given as “significantly reduces cell proliferation”. In addition, the “cell death when coupled with cellular stress” value in test [2] is on record as “extensive cell death”. In the test on BxPC-3 infected cells, the “percentage of early apoptotic cells” value was found to be 22.4% and the “percentage of late apoptotic cells” value is recorded as 58.6%. The growth rate result in test [3] was “consistently lower growth rate”. Further, the “cells arrested in G1 phase” value in the test with H10 cells was “increase in cells arrested in G1 phase”. Moreover, the invasion result with A549 cancer cells is on record as “significant decrease in invasion”. The “binding to ubiquitylated proteins” value in the test with ubiquitylated proteins is listed as “binds to ubiquitylated proteins”. Also, the protein ubiquitylation pattern entry in test [4] was “alters protein ubiquitylation pattern”.
